Test results from the supplement of paper PMC9732359.
± gives the uncertainty stated by the source.

Assay: protein stability index of a GFP-peptide fusion (yeast GPS) (PSI 1-4); higher = more stable; sorted into four equal gates, so the index is relative within each strain
Details: doa10∆
Summary of the method: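 Tiled 17-residue peptides from yeast proteins were fused downstream of GFP on a plasmid that also expresses Cherry, and the pooled library was carried in yeast. Mid-log cultures grown in leucine-free medium were sorted into four equal gates by GFP/Cherry fluorescence ratio. Plasmids from each gate were PCR-amplified and Illumina-sequenced, and reads were assigned to strains by barcodes. Each peptide's protein stability index is the sum, over gates, of the gate's read frequency multiplied by its gate number.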

Sequence | protein stability index
AGSAALKIIHDTFRWVG [RPO31] | 3.23 ± 0.093
AGSGSTFIYGYCDKNFR [PRE3] | 1.24 ± 0.085
AGVPRQAINLGQVVLTP [RPL14A] | 2.09 ± 0.15
AGVSHGTLGEIFIRCNN [SMX3] | 3.57 ± 0.14
AHDYNNDQDMFTIVSLV [YML103C/NUP188] | 2.76 ± 0.21
AHEISQGVYGAVYETLI [BRR2] | 3.33 ± 0.082
AHFWKPVLNLDKLWTLI [RPL28] | 2.22 ± 0.045
AHKGQIVLIKGISSAYI [SNU114] | 1.56 ± 0.07
AHMGVLLVLLQDVIKVL [SWP82] | 1.51 ± 0.068
AHNPELERYVKRCMDDL [RPO31] | 3.33 ± 0.062
AHTAGRYANKRFRKAQC [RPS5] | 2.29 ± 0.22
AIATTVIAHLTVEALDF [RET1] | 2.54 ± 0.12
AIEPETFTQLVSSSLYE [PUP3] | 2.35 ± 0.063
AIFNNEFDSDDDDISDD [RPN4] | 3.12 ± 0.1
AIIDKNTGLTFKKNLQV [PRE4] | 3.22 ± 0.081
AIKWDGSSGGVIRMVVL [PRE3] | 2.56 ± 0.084
AIKYGYEDSGSTYKHDR [SRB4] | 3.22 ± 0.17
AIKYRPTSVKLLKTTVP [POP3] | 2.23 ± 0.037
AIVCYILFELYKIKGRN [SRP72] | 2.01 ± 0.056
AKAKAVTSKVRNAEFKV [YMR153W/NUP53] | 1.38 ± 0.15
AKLPGHKSLIRSISWAP [YGL100W/SEH1] | 2.74 ± 0.07
AKMNAKTDFAKIINKPN [RPC82] | 1.8 ± 0.069
AKNSIIDSSNLPLQAQQ [SWI1] | 2.73 ± 0.069
AKRLIHGTSTSAEDEEN [CDC53] | 2.84 ± 0.14
AKSLLKLQLGQLYESGN [COR1] | 2.97 ± 0.12
AKVVVTTSRFSKQVTDY [FAS2] | 3.08 ± 0.084

Sequence | protein stability index
AKYETSILEHSGIRLIE [FAS2] | 3.32 ± 0.062
ALAGGKKSKKKWSKKSM [RPS25A] | 3.45 ± 0.12
ALAGSEINWRHASFLCS [FAS1] | 1.77 ± 0.071
ALAYAGTGNNSAVKRLL [RPN2] | 2.68 ± 0.1
ALEEGLNEEAVIFLSSL [YJL039C/NUP192] | 3.28 ± 0.1
ALETENMEIRNLRLKIL [GRR1] | 3.14 ± 0.065
ALIENKKAKLVLIANDV [RPL8A] | 2.76 ± 0.1
ALKRSYGIFGEGVEYSF [POP8] | 2.45 ± 0.092
ALKTSIQHVGMINGRKL [FAS1] | 3.21 ± 0.12
ALLQRLKTNGKQNNKDF [MTW1] | 2.97 ± 0.1
ALMKEKDIRSTLASLIR [RPC82] | 3.2 ± 0.27
ALQDKEITSVLSNLHES [SNF12] | 2.93 ± 0.083
ALQQQQQQQQNQQQQNQ [SWI1] | 2.77 ± 0.062
ALRPSDIFGANAASGSN [YOR098C/NUP1] | 2.67 ± 0.057
ALSKFLTHPKYLNSRII [YML103C/NUP188] | 1.16 ± 0.057
ALSMGKSSAFVIDIGAS [ARP7] | 1.47 ± 0.043
ALVKPETQFKLSRPYKA [CDC53] | 2.41 ± 0.068
AMDLAQMLIQGVWDVDN [BRR2] | 2.85 ± 0.064
AMDRAHRIGQKKQVHVY [ISW2] | 2.71 ± 0.095
AMEKYLLSKSKIGEEDY [MTW1] | 2.35 ± 0.085
AMFAALQQKQQQRFQAL [SWI1] | 1.36 ± 0.051
AMLAAQDVAAKCKEVGI [RPS14B] | 2.36 ± 0.061
AMNDACYEKVLESINEG [BRR2] | 3.15 ± 0.12
ANARDFGEWAGMTKSNI [BRR2] | 2.28 ± 0.12
ANGTFMDFGVDPSMDPE [RPN10] | 2.87 ± 0.12
ANIQLDFPELKPYKQVK [FAS2] | 3.16 ± 0.1

Sequence | protein stability index
ANKEKKKAEKAARKAEK [RPL24A] | 3.27 ± 0.059
ANKLSKSHSTVSSSSRH [ISW2] | 2.9 ± 0.066
ANLVNKESDLLEETRTT [BRN1] | 3.06 ± 0.18
ANNASQITPTVPHSHPS [SNF12] | 2.77 ± 0.053
ANPVVATDPVAAKPDNL [SWP82] | 3.26 ± 0.087
ANTPSIPTNPVDNENNK [SWI3] | 2.62 ± 0.08
ANTPVLRKSELEYYAML [RPL30] | 2.57 ± 0.096
ANVQRLKEYQSKIIVFP [RPL13A] | 2.93 ± 0.076
APAYAWSHNGPFETFDH [CYT1] | 2.19 ± 0.098
APDSEYLCFILSTRAGG [SNF2] | 1.97 ± 0.055
APIADDNHSGDATANAT [DSN1] | 3.15 ± 0.1
APIPIREDIDDPLAKVN [BRR2] | 2.9 ± 0.075
APMYILDEVDAALDLSH [SMC2] | 2.94 ± 0.29
APSIIFMDEIDSIGSTR [RPT6] | 2.76 ± 0.063
AQAAQAAQAQAQAQAQA [GAL11] | 2.53 ± 0.041
AQADKQDISSSTRVEFE [FAS2] | 3.12 ± 0.081
AQAFVELENSSPELKAE [RPS7A] | 3.08 ± 0.23
AQNQGGQVSMSQFNGSG [PGD1] | 3.42 ± 0.12
AQQLRNQQQQQQQQQQQ [GAL11] | 2.98 ± 0.095
AQQQQLSNYPQQIQEQV [YGR119C/NUP57] | 2.82 ± 0.059
AQTEIKLFNKWSFEEVE [RPS5] | 3.2 ± 0.092
ARAVQDNGESAFRTLRL [RPL13A] | 3 ± 0.13
ARFRSIHILKVAEIEKT [RPL20A] | 1.2 ± 0.067
ARIHAQNYLKTYNEDIP [PRE9] | 2.28 ± 0.051
ARLEPGTAIGAIGAQSI [RPO31] | 2.76 ± 0.097

Same assay, conditions: pdr5∆

Sequence | protein stability index
AGSAALKIIHDTFRWVG [RPO31] | 2.85 ± 0.12
AGSGSTFIYGYCDKNFR [PRE3] | 1.42 ± 0.057
AGVPRQAINLGQVVLTP [RPL14A] | 2.64 ± 0.13
AGVSHGTLGEIFIRCNN [SMX3] | 3.37 ± 0.096
AHDYNNDQDMFTIVSLV [YML103C/NUP188] | 3.11 ± 0.16
AHEISQGVYGAVYETLI [BRR2] | 3.11 ± 0.07
AHFWKPVLNLDKLWTLI [RPL28] | 2.3 ± 0.047
AHKGQIVLIKGISSAYI [SNU114] | 1.48 ± 0.064
AHMGVLLVLLQDVIKVL [SWP82] | 1.58 ± 0.084
AHNPELERYVKRCMDDL [RPO31] | 3.45 ± 0.062
AHTAGRYANKRFRKAQC [RPS5] | 2.92 ± 0.18
AIATTVIAHLTVEALDF [RET1] | 2.32 ± 0.083
AIEPETFTQLVSSSLYE [PUP3] | 2.89 ± 0.068
AIFNNEFDSDDDDISDD [RPN4] | 2.16 ± 0.19
AIIDKNTGLTFKKNLQV [PRE4] | 2.79 ± 0.076
AIKWDGSSGGVIRMVVL [PRE3] | 1.92 ± 0.071
AIKYRPTSVKLLKTTVP [POP3] | 2.3 ± 0.039
AIVCYILFELYKIKGRN [SRP72] | 2.13 ± 0.059
AKAKAVTSKVRNAEFKV [YMR153W/NUP53] | 1.67 ± 0.13
AKLPGHKSLIRSISWAP [YGL100W/SEH1] | 2.3 ± 0.058
AKMNAKTDFAKIINKPN [RPC82] | 1.79 ± 0.092
AKNSIIDSSNLPLQAQQ [SWI1] | 2.94 ± 0.071
AKRLIHGTSTSAEDEEN [CDC53] | 2.44 ± 0.26
AKSLLKLQLGQLYESGN [COR1] | 3.27 ± 0.13
AKVVVTTSRFSKQVTDY [FAS2] | 2.71 ± 0.082

Sequence | protein stability index
AKYETSILEHSGIRLIE [FAS2] | 3.3 ± 0.063
ALAGGKKSKKKWSKKSM [RPS25A] | 3.42 ± 0.17
ALAGSEINWRHASFLCS [FAS1] | 1.6 ± 0.057
ALAYAGTGNNSAVKRLL [RPN2] | 2.71 ± 0.1
ALEEGLNEEAVIFLSSL [YJL039C/NUP192] | 3.05 ± 0.062
ALETENMEIRNLRLKIL [GRR1] | 2.9 ± 0.043
ALGIKVTNPKGRLALEA [RPL32] | 3.37 ± 0.18
ALIENKKAKLVLIANDV [RPL8A] | 2.51 ± 0.093
ALKRSYGIFGEGVEYSF [POP8] | 2.71 ± 0.052
ALKTSIQHVGMINGRKL [FAS1] | 3.21 ± 0.1
ALLQRLKTNGKQNNKDF [MTW1] | 3.33 ± 0.14
ALMKEKDIRSTLASLIR [RPC82] | 2.85 ± 0.21
ALQDKEITSVLSNLHES [SNF12] | 3.43 ± 0.13
ALQQQQQQQQNQQQQNQ [SWI1] | 2.97 ± 0.068
ALRPSDIFGANAASGSN [YOR098C/NUP1] | 1.99 ± 0.044
ALSKFLTHPKYLNSRII [YML103C/NUP188] | 1.32 ± 0.077
ALSMGKSSAFVIDIGAS [ARP7] | 1.95 ± 0.069
ALVKPETQFKLSRPYKA [CDC53] | 2.64 ± 0.059
AMDLAQMLIQGVWDVDN [BRR2] | 2.78 ± 0.067
AMDRAHRIGQKKQVHVY [ISW2] | 2.75 ± 0.078
AMEKYLLSKSKIGEEDY [MTW1] | 2.73 ± 0.083
AMFAALQQKQQQRFQAL [SWI1] | 1.62 ± 0.053
AMLAAQDVAAKCKEVGI [RPS14B] | 2.36 ± 0.065
AMNDACYEKVLESINEG [BRR2] | 2.82 ± 0.17
ANARDFGEWAGMTKSNI [BRR2] | 2.82 ± 0.14

Sequence | protein stability index
ANGTFMDFGVDPSMDPE [RPN10] | 3.05 ± 0.091
ANIQLDFPELKPYKQVK [FAS2] | 2.85 ± 0.094
ANKEKKKAEKAARKAEK [RPL24A] | 3.33 ± 0.065
ANKLSKSHSTVSSSSRH [ISW2] | 2.63 ± 0.069
ANLVNKESDLLEETRTT [BRN1] | 3.51 ± 0.17
ANNASQITPTVPHSHPS [SNF12] | 3 ± 0.064
ANPVVATDPVAAKPDNL [SWP82] | 3.15 ± 0.097
ANTPSIPTNPVDNENNK [SWI3] | 2.8 ± 0.068
ANTPVLRKSELEYYAML [RPL30] | 2.99 ± 0.093
ANVQRLKEYQSKIIVFP [RPL13A] | 3.03 ± 0.093
APAYAWSHNGPFETFDH [CYT1] | 2.64 ± 0.099
APDSEYLCFILSTRAGG [SNF2] | 1.97 ± 0.058
APIADDNHSGDATANAT [DSN1] | 3.08 ± 0.071
APIPIREDIDDPLAKVN [BRR2] | 2.66 ± 0.07
APMYILDEVDAALDLSH [SMC2] | 2.85 ± 0.21
APSIIFMDEIDSIGSTR [RPT6] | 2.89 ± 0.088
AQAAQAAQAQAQAQAQA [GAL11] | 2.87 ± 0.046
AQADKQDISSSTRVEFE [FAS2] | 3.17 ± 0.068
AQNQGGQVSMSQFNGSG [PGD1] | 3.29 ± 0.12
AQQLRNQQQQQQQQQQQ [GAL11] | 2.92 ± 0.11
AQQQQLSNYPQQIQEQV [YGR119C/NUP57] | 3.09 ± 0.058
AQTEIKLFNKWSFEEVE [RPS5] | 3.23 ± 0.11
ARAVQDNGESAFRTLRL [RPL13A] | 2.88 ± 0.1
ARFRSIHILKVAEIEKT [RPL20A] | 1.16 ± 0.051
ARIHAQNYLKTYNEDIP [PRE9] | 1.99 ± 0.079
